In one data set the test system is NSC34 cells. The data set is described as follows: Plasmin activity in cytoplasm and nucleus of okadaic acid-treated NSC34 cells (enzyme substrate kinetic method, S-2251). In kind it is cell-based. As to conditions: plasminogen 0.5 mg/mL 24 hours, vs vehicle group. As to the method: The cells were placed in a carbon dioxide incubator for culture at 37.0° C. and 5% CO2. […] After adding plasminogen for 24 hours, the cells were harvested. […] The supernatant is the extracted cytoplasmic protein, and the supernatant is immediately sucked up into a pre-cooled sample tube for later use. The precipitate is the cell nucleus, and the remaining supernatant was completely aspirated (to avoid contamination by cytoplasmic proteins), then adding 50-100 μL of nuclear protein extraction reagent. The precipitate is completely dispersed by pipette blow or high-speed vortex for 15 seconds (can be extended appropriately), then ice-bathing for 10 minutes, vortexing vigorously at maximum speed for 10 seconds and centrifuging at 12,000-16,000 g for 10 minutes at 4° C. The supernatant was immediately sucked up by pipette into a pre-cooled sample tube; this is the extracted nuclear protein.

Data set [1] in a line: Spinal cord tissue plasminogen level after tail vein injection in SOD1-G93A mice (ELISA). The class given is in vivo, mouse. (In general: ELISA stands for enzyme-linked immunosorbent assay.)
Excerpt: Spinal cord tissue was obtained from the mice sacrificed in Example 11, homogenizing and detecting according to the instructions of Human Plasminogen ELISA Kit (manufacturer: AssayMax, catalog number: EP1200-1). The human plasminogen working standard in the kit was used as the internal standard to calibrate the concentration of each sample. The calibrated concentration was divided by the total protein concentration to calculate the amount of plasminogen per unit of total protein in each sample and perform statistical analysis.
A short description of data set [2]: Plasma plasminogen level after tail vein injection in FAD (Alzheimer's model) mice (ELISA). In kind it is in vivo, mouse.
Description: Twenty-seven 16-week-age B6SJL-Tg (APPSwFlLon, PSEN1*M146L* L286V) 6799Vas Mmjax (Stock Number: 034840) (FAD mice for short) (breeding mice were purchased from Jackson Laboratory, USA) were randomly divided into three groups: three mice in vehicle control group, 12 mice in 6 mg/kg plasminogen group, and 12 mice in 50 mg/kg plasminogen group. The mice in the vehicle control group were injected with vehicle at 5 ml/kg by tail vein, the mice in the 6 mg/kg plasminogen group were injected with plasminogen (1.2 mg/ml) at 6 mg/kg body weight by tail vein, and the mice in the 50 mg/kg plasminogen group were injected with plasminogen (10 mg/ml) at 6 mg/kg body weight by tail vein. The mice in the vehicle control group were killed 2 hours after administration, and their blood was collected. Three mice in the 6 mg/kg plasminogen group and three mice in the 50 mg/kg plasminogen group were killed 2, 6, 12 and 24 hours after administration, and their blood was collected. After the blood was centrifuged (3500 rpm, 10 min, 4° C.), the supernatant was taken to detect according to the instructions of Human Plasminogen ELISA Kit (manufacturer: AssayMax, catalog number: EP1200-1). The concentration of each sample was calibrated by using human plasminogen working standard as the internal standard. The calibrated concentration was divided by the total protein concentration to calculate the amount of plasminogen per unit of total protein in each sample and perform statistical analysis.
The target of data set [3] is T1, TDP-43 (Mus musculus, UniProt Q921F2). Briefly: TDP-43 in cytoplasm and nucleus of NSC34 cells treated with okadaic acid (Western blot). The class given is cell-based. Also noted: host or cells: NSC34 cells. As to conditions: okadaic acid 2.5 ng/uL 24 h, plasminogen 0.5 mg/mL 24 hours, vs vehicle group. As to the method:
10^6 NSC34 cells (Otwo Biotech, HTX1846) were inoculated in a 9 cm^2 culture dish, and cultured in DMEM medium (Gibco, 11965092) containing 10% fetal bovine serum (EVERY GREEN, 11011-8611). The cells were placed in a carbon dioxide incubator for culture at 37.0° C. and 5% CO2. After the cells grew for 48 hours and reached about 80%-90% abundance, the medium was changed, and subsequent experiments were performed. […] After adding plasminogen for 24 hours, the cells were harvested. The culture supernatant was sucked off, washing with 1×PBS, digesting with 1 mL of 0.25% pancreatic enzyme for 2-3 minutes, then stopping digestion with 5-6 mL of DMEM complete medium when the cells were obviously detached. The cells were slowly blown, and the suspension was collected into a centrifuge tube, centrifuging at 1500 rpm for 5 min to remove the supernatant, resuspending with pre-cooled 1×PBS, and counting the cells. 200 μL of plasma protein extraction reagent (the volume of a pellet of 2×10^6 cells is about 20 μL or 40 mg) (Solarbio, R0050) was added for every 20 μL of cell pellet. The cell pellet was completely dispersed into a single-cell suspension by pipette blow or high-speed vortex for 15 seconds, then ice-bathing for 10 minutes, vortexing vigorously at maximum speed for 10 seconds and centrifuging at 12,000-16,000 g for 10 minutes at 4° C. […]

Data set [4] has as its target T1, TDP-43. The data set is described as follows: Immunofluorescence co-localization staining of plasminogen and TDP-43 in spinal cord tissue of SOD1-G93A mice. The class given is in vivo. Also noted: from tissue; host or cells: mouse spinal cord, gluteal muscle, brain, kidney cell nuclei. As to conditions: 1 mg/mouse tail vein every day. As to the method:
Five wild-type male mice and nine male SOD1-G93A mice of similar week-age were selected. Wild-type mice served as the blank control group, and SOD1-G93A mice were observed and recorded from the time of hind leg tremor when they became ill at week 14, and the onset time of each mouse was recorded. Administering to mice 14 days after the onset of the disease. All mice were randomly divided into a vehicle group and a plasminogen group according to the onset of the disease: 5 mice in the vehicle group, which were injected with 0.1 ml of vehicle (sodium citrate buffer)/mouse by tail vein every day; 4 mice in the plasminogen group, which were injected with 1 mg of plasminogen/0.1 ml of vehicle/mouse by tail vein every day. The vehicle and plasminogen were administered continuously under SPF environment, and the samples were collected at the near-death stage. The longest administration was 61 days. The spinal cord tissue collected was fixed in formalin fixative solution. The fixed tissues were dehydrated with gradient alcohol and transparentized with xylene before being embedded in paraffin. The thickness of tissue sections was 3 μm, and the sections were dewaxed and rehydrated and then washed once. The sections were immersed in antigen retrieval working solution (0.01 M sodium citrate buffer) to perform microwave retrieval: preheating for 5 minutes, high heating for 2 minutes, and low heating for 15 minutes. The tissue was circled with a PAP pen, then incubating in 3% hydrogen peroxide for 15 minutes, and washing twice with 0.01 M PBS for 5 minutes each time, blocking with 5% normal goat serum (Vector laboratories, Inc., USA) for 30 minutes. After the time for blocking is up, the goat serum is discarded, adding anti-plasminogen antibody (self-produced), then incubating at 4° C. overnight, and washing twice with 0.01M PBS for 5 minutes each time. The goat anti-rabbit IgG (HRP) antibody (Abcam) secondary antibody was added to incubate at room temperature for 1 hour, then washing twice with 0.01M PBS for 5 minutes each time. The green fluorescence color development of the corresponding anti-plasminogen secondary antibody was performed according to the instructions of the XTSA520 IHC kit (Alpha X Biotech, AXT6202500), washing 3 times with PBS for 5 minutes each time. The above antigen retrieval and blocking procedures were repeated, and then anti-TDP-43 antibody (Proteintech, 12892-1-AP) staining was performed, then incubating at 37° C. for 1 hour, washing 3 times with PBS for 5 minutes each time. […] The red fluorescence color development of the corresponding anti-TDP-43 secondary antibody was performed according to the instructions of the XTSA620 IHC kit (Alpha X Biotech, AXT6502500), washing 3 times with PBS for 5 minutes each time. […]

Setting [5] is: tail vein injection of 50 mg/kg.

“Also recorded” adds a separate entry of the source.

T1 sequence (Q921F2 whole entry): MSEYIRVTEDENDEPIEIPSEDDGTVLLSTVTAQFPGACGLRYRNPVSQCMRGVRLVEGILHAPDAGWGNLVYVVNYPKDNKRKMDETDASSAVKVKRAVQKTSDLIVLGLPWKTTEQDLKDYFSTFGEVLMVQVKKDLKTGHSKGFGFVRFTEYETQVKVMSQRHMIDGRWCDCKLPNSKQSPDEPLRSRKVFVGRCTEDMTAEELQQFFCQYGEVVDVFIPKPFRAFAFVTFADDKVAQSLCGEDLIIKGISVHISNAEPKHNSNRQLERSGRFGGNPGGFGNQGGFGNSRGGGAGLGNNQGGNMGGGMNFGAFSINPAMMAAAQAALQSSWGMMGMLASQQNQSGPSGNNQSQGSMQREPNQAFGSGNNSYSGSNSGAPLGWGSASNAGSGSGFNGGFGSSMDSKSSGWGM

B1: plasminogen: human plasminogen purified from human donor plasma, in which human Lys-plasminogen and Glu-plasminogen are >98% (protein)
chain: KVYLSECKTGNGKNYRGTMSKTKNGITCQKWSSTSPHRPRFSPATHPSEGLEENYCRNPDNDPQGPWCYTTDPEKRYDYCDILECEEECMHCSGENYDGKISKTMSGLECQAWDSQSPHAHGYIPSKFPNKNLKKNYCRNPDRELRPWCFTTDPNKRWELCDIPRCTTPPPSSGPTYQCLKGTGENYRGNVAVTVSGHTCQHWSAQTPHTHNRTPENFPCKNLDENYCRNPDGKRAPWCHTTNSQVRWEYCKIPSCDSSPVSTEQLAPTAPPELTPVVQDCYHGDGQSYRGTSSTTTTGKKCQSWSSMTPHRHQKTPENYPNAGLTMNYCRNPDADKGPWCFTTDPSVRWEYCNLKKCSGTEASVVAPPPVVLLPDVETPSEEDCMFGNGKGYRGKRATTVTGTPCQDWAAQEPHRHSIFTPETNPRAGLEKNYCRNPDGDVGGPWCYTTNPRKLYDYCDVPQCAAPSFDCGKPQVEPKKCPGRVVGGCVAHPHSWPWQVSLRTRFGMHFCGGTLISPEWVLTAAHCLEKSPRPSSYKVILGAHQEVNLEPHVQEIEVSRLFLEPTRKDIALLKLSSPAVITDKVIPACLPSPNYVVADRTECFITGWGETQGTFGAGLLKEAQLPVIENKVCNRYEFLNGRVQSTELCAGHLAGGTDSCQGDSGGPLVCFEKDKYILQGVTSWGLGCARPNKPGVYVRVSRFVTWIEGVMRNN
With B1, in the data set on NSC34 cells, the “level of plasmin activity in the cytoplasm” value is given as “significantly higher” and the “level of plasmin activity in the nucleus” value is on record as “significantly higher”. For the same molecule, the “plasminogen level in the spinal cord, 50 mg/kg group compared with 6 mg/kg group” value in data set [1] (tail vein) is listed as “significantly higher”. Further, the “time within which plasminogen is almost completely metabolized (spinal cord)” value in data set [1] (tail vein 50 mg/kg and 6 mg/kg) was 12 to 24 h. The “plasminogen level in the spinal cord” value in data set [1] (tail vein injection of 6 mg/kg) is given as “increase significantly”. The “plasminogen level in the spinal cord” value in data set [1] (setting [5]) was “increase significantly”. Besides, in data set [2] (tail vein), the “plasma plasminogen level, 50 mg/kg group compared with 6 mg/kg group” value is given as “significantly higher”. The “time within which plasminogen is almost completely metabolized (plasma)” value in data set [2] (tail vein 50 mg/kg and 6 mg/kg) fell in the range of 12 to 24 h. In addition, the plasma plasminogen level result in data set [2] (tail vein injection of 6 mg/kg) is “increase significantly”. Further, in data set [2] (setting [5]), the plasma plasminogen level entry was “increase significantly”. Moreover, in the data set with TDP-43 [3], the “level of TDP-43 in the cytoplasm” value is “significantly lower; also recorded: almost significantly or significantly lower” and the “level of TDP-43 in the nucleus” value is “significantly lower; also recorded: almost significantly or significantly lower”. In addition, in the data set with TDP-43 [4], the “subcellular presence of plasminogen in spinal cord tissue” value was “present in the cytoplasm (as indicated by A) and in the nucleus; also recorded: present in the cytoplasm (as indicated by Δ) and in the nucleus”. Moreover, in the data set with TDP-43 [4] (immunofluorescence, vs vehicle group), the “level of TDP-43 in spinal cord tissue” value is listed as “lower than that in the vehicle group; also recorded: lower than that of the vehicle group”. Further, the “positive staining of plasminogen in spinal cord tissue” value with TDP-43 [4] (up to 61 days, vs vehicle group) is recorded as “significantly more”. Further, the “co-localization of plasminogen and TDP-43 in spinal cord tissue” value with TDP-43 [4] (vs vehicle group) was “more than that in the vehicle group”.

The values above are taken from US20260166131A1, “METHOD FOR PROMOTING PATHOLOGICAL TDP-43 PROTEIN DEGRADATION, AND DRUG” (TALENGEN INTERNATIONAL LIMITED, priority 2022, published 2026).
